According to publication PMC4783047, “Determinants of Amyloid Formation for the Yeast Termination Factor Nab3” (PLoS ONE, 2016):

B1: Nab3 low complexity domain, C-terminal 134 amino acids of Nab3 (Nab3^134) (domain or fragment, S. cerevisiae, UniProt P38996 669-802, looked up)
chain: SQTPMDQQQLLSAIQNLPPNVVSNLLSMAQQQQQQPHAQQQLVGLIQSMQGQAPQQQQQQLGGYSSMNSSSPPPMSTNYNGQNISAKPSAPPMSHQPPPPQQQQQQQQQQQQQQQQPAGNNVQSLLDSLAKLQK
notes: Inserted between the BglII and XhoI sites of pET32a; also called Nab3 LCD; wildtype LCD
B2: Full-length Nab3 (natural protein, S. cerevisiae, UniProt P38996 1-802, looked up)
chain: MSDENHNSDVQDIPSPELSVDSNSNENELMNNSSADDGIEFDAPEEEREAEREEENEEQHELEDVNDEEEEDKEEKGEENGEVINTEEEEEEEHQQKGGNDDDDDDNEEEEEEEEDDDDDDDDDDDDEEEEEEEEEEGNDNSSVGSDSAAEDGEDEEDKKDKTKDKEVELRRETLEKEQKDVDEAIKKITREENDNTHFPTNMENVNYDLLQKQVKYIMDSNMLNLPQFQHLPQEEKMSAILAMLNSNSDTALSVPPHDSTISTTASASATSGARSNDQRKPPLSDAQRRMRFPRADLSKPITEEEHDRYAAYLHGENKITEMHNIPPKSRLFIGNLPLKNVSKEDLFRIFSPYGHIMQINIKNAFGFIQFDNPQSVRDAIECESQEMNFGKKLILEVSSSNARPQFDHGDHGTNSSSTFISSAKRPFQTESGDMYNDDNGAGYKKSRRHTVSCNIFVKRTADRTYAIEVFNRFRDGTGLETDMIFLKPRMELGKLINDAAYNGVWGVVLVNKTHNVDVQTFYKGSQGETKFDEYISISADDAVAIFNNIKNNRNNSRPTDYRAMSHQQNIYGAPPLPVPNGPAVGPPPQTNYYQGYSMPPPQQQQQQPYGNYGMPPPSHDQGYGSQPPIPMNQSYGRYQTSIPPPPPQQQIPQGYGRYQAGPPPQPPSQTPMDQQQLLSAIQNLPPNVVSNLLSMAQQQQQQPHAQQQLVGLIQSMQGQAPQQQQQQLGGYSSMNSSSPPPMSTNYNGQNISAKPSAPPMSHQPPPPQQQQQQQQQQQQQQQQPAGNNVQSLLDSLAKLQK
notes: Nab3, S. cerevisiae transcription termination factor, 802 amino acids; also called full-length wildtype Nab3; the entire 802-residue protein
B3: Nab3^134 with the last 18 amino acids of Nab3 deleted (Nab3^134Δα) (domain or fragment, S. cerevisiae, UniProt P38996 669-784, looked up)
chain: SQTPMDQQQLLSAIQNLPPNVVSNLLSMAQQQQQQPHAQQQLVGLIQSMQGQAPQQQQQQLGGYSSMNSSSPPPMSTNYNGQNISAKPSAPPMSHQPPPPQQQQQQQQQQQQQQQQ
notes: Same vector as m1, so an S-tag is probably left after thrombin cleavage
B4: Pcf11 low complexity domain (residues 228-287) (domain or fragment, yeast, UniProt P39081 228-287, looked up)
chain: MRYHELQQQQQQQQQQQQQQQQQQQQYHETKDMVGSYTQNSNSAIPLFGNNSDTTNQQNS
notes: Pcf11, yeast transcription termination factor, codon 228 to codon 287 (core prion-like domain as defined by Alberti et al.); Inserted between the BglII and XhoI sites of pET32a; also called Pcf11 LCD; Pcf11's LCD; source: E. coli, pET32-Pcf11-LCD (synthetic gene), thioredoxin fusion, purified (HisTrap, thrombin cleavage, second HisTrap)

Columns and labels:
thioflavin T = assay: Thioflavin T fluorescence; conditions: value read at the wild-type emission peak, about 480 nm; the mutant trace lies on the zero line over the whole 460-595 nm spectrum; parent: est. 66; read off a plot
[1] = molecular target: the molecule itself; assay: transmission electron microscopy of filaments (negative stain); purified, concentrated protein left undisturbed (4°C, or 4°C or 22°C for the LCD proteins) for days to weeks; 1% phosphotungstic acid stain; self-assembly into filaments

Molecule	response (thioflavin T)	binding result [1]
Nab3 low complexity domain, C-terminal 134 amino acids of Nab3 (Nab3^134) (from UniProt P38996) Q2E; Q7E; Q9E; Q15E; Q30E; Q32E; Q34E; Q39E; Q41E; Q47E; Q50E; Q52E; Q55E; Q57E; Q59E; Q82E; Q96E; Q101E; Q105E; Q107E; Q109E; Q111E; Q113E; Q115E	0	
B1		binds
B2		binds
B3		binds
B4		binds
